Measured values reported in the DeepSol protein solubility set.

test: soluble on expression in E. coli; label from the status in PepcDB or PDB records

Sequence	soluble on expression in E. coli
MGSDKIHHHHHHMDAMKYNDLRDFLTLLEQQGELKRITLPVDPHLEITEIADRTLRAGGPALLFENPKGYSMPVLCNLFGTPKRVAMGMGQEDVSALREVGKLLAFLKEPEPPKGFRDLFDKLPQFKQVLNMPTKRLRGAPCQQKIVSGDDVDLNRIPIMTCWPEDAAPLITWGLTVTRGPHKERQNLGIYRQQLIGKNKLIMRWLSHRGGALDYQEWCAAHPGERFPVSVALGADPATILGAVTPVPDTLSEYAFAGLLRGTKTEVVKCISNDLEVPASAEIVLEGYIEQGETAPEGPYGDHTGYYNEVDSFPVFTVTHITQREDAIYHSTYTGRPPDEPAVLGVALNEVFVPILQKQFPEIVDFYLPPEGCSYRLAVVTIKKQYAGHAKRVMMGVWSFLRQFMYTKFVIVCDDDVNARDWNDVIWAITTRMDPARDTVLVENTPIDYLDFASPVSGLGSKMGLDATNKWPGETQREWGRPIKKDPDVVAHIDAIWDELAIFNNGKSA	not soluble
MAGDPMRLEIAEKYMAEAYEYLKKGDTIQASGKAYKVAEEIVKAIKFLISKLIGQDVGVISPYRTQVRKLDQELANYKPYVEVNTVDAFQGREKDVIIFSVTATNGLRFVTNRRRLNVAFTRPRYKLIVLGNENSIMSCQMTICLEHHHHHH	not soluble
MGSSHHHHHHSSGRENLYFQGHMHANIRYSFGGDEHLFAEVAEAMSLEAFFRGMAITRAIEALQLPGVLDVCLANASFQVRFDPDRLAPQALLETVRGLEAEAVAARSIETRIVEVPVLYNDPWTHETLMRFRDRHQDPDSTDLEYAARINGYADVQAFIQAHSGTPWFVSMVGFVAGLPFMYQMVERERQLQVPKYLRPRIDTPKLTLGHGGCFGCIYSVRGAGGYQMFGVTPAPIFDPRQGLPYLEESMVFFRAGDIVQFRPIERTEYEHMAAEVESGTFDLRIRPVSFDLDAFLADPRGCTQHLQEVLHVD	soluble
MGSDKIHHHHHHMFSKSLEALHHAKRYRKRELFDPLLKDYASNDYLGLSVKKDLLQNAFNKLQSFVSHSPKASMLVNGYHPLHAELEERLANLLGFESALLVGSGFLGNLALIDTLLVKNALLFMDAHYHASGIFSTKIKPNQVIFFSHNDIKDLKQKLFNAPKNKIKFIAIEGVYSMDASVAPYDFYAIIQEIPNAFLIVDEAHSFGTIGENLLGFLEYYRIKEKDKIIKLSTFSKALASYGACILAPLQTIEFLTNRAKSVIYTTALSLLDTALTLAHLEYFIVQKQELKNELSKHQQIIFETLGIRTLAGFFTLEFESNPALLNAHHFLKEKGFLVGAIRPPTVSKPLLRVSLSLKNSLEDTKELANTLLNYSKIQSSFKSG	not soluble
GPGSMADVADPSSELINELRALVVSGSGLVPLDERKVHTVVENMTDAFRHLESISRNPFADPSQPYYSGAMRFYKAKCLRDKRCVVAYLLWRQSQITKSWWEARDNTISNMLAPCERTFLQDYNDVMVEYMTSFAVPLDLRSFTWRPPSTQQLEVRGLVNHVFVSSITGAVINLYKGKQILLGFEEAESLIQQGVVELVE	not soluble
MTVSSHRLELLSPARDAAIAREAILHGADAVYIGGPGFGARHNASNSLKDIAELVPFAHRYGAKIFVTLNTILHDDELEPAQRLITDLYQTGVDALIVQDMGILELDIPPIELHASTQCDIRTVEKAKFLSDVGFTQIVLARELNLDQIRAIHQATDATIEFFIHGALCVAYSGQCYISHAQTGRSANRGDCSQACRLPYTLKDDQGRVVSYEKHLLSMKDNDQTANLGALIDAGVRSFKIEGRYKDMSYVKNITAHYRQMLDAIIEERGDLARASSGRTEHFFVPSTEKTFHRGSTDYFVNARKGDIGAFDSPKFIGLPVGEVVKVAKDHLDVAVTEPLANGDGLNVLIKREVVGFRANTVEKTGENQYRVWPNEMPADLHKIRPHHPLNRNLDHNWQQALTKTSSERRVAVDIELGGWQEQLILTLTSEEGVSITHTLDGQFDEANNAEKAMNNLKDGLAKLGQTLYYARDVQINLPGALFVPNSLLNQFRREAADMLDAARLASYQRGSRKPVADPAPVYPQTHLSFLANVYNQKAREFYHRYGVQLIDAAYEAHEEKGEVPVMITKHCLRFAFNLCPKQAKGNIKSWKATPMQLVNGDEVLTLKFDCRPCEMHVIGKIKNHILKMPLPGSVVASVSPDELLKTLPKRKG	soluble
MSIAVGMIETLGFPAVVEAADSMVKAARVTLVGYEKIGSGRVTVIVRGDVSEVQASVTAGIENIRRVNGGEVLSNHIIARPHENLEYVLPIRYTEAVEQFREIVNPSIIRRAAALEHHHHHH	soluble
MNDIAHNLAQVRDKISAAATRCGRSPEEITLLAVSKTKPASAIAEAIDAGQRQFGENYVQEGVDKIRHFQELGVTGLEWHFIGPLQSNKSRLVAEHFDWCHTIDRLRIATRLNDQRPAELPPLNVLIQINISDENSKSGIQLAELDELAAAVAELPRLRLRGLMAIPAPESEYVRQFEVARQMAVAFAGLKTRYPHIDTLSLGMSDDMEAAIAAGSTMVRIGTAIFGARDYSKK	soluble
MTRQHSTQPDPKLDLVLERTIDVPPALVWQAWTQPEHIKHWLTPAPWQTVRCDVDLRPGGRFRFVMRSPEGEEHTHDCCYLEIVEGSRLVWTNALLPGFRPAGGGGDVPAFTAVIRIEPHDQGTRYTATAMHGTQAGCRQHSDMGFHDGWGAALDQLVAHARNMQQASLEHHHHHH	soluble
MQVTHKILKIPSKGYRKILSLLNEKGQARLIGGCVRDALLDLLHNKTNKEEFEGDTERRIAMYINVREDSSTGSTYKLPLEASYPRDRLEKGSCDIDIATNLTPSEVTNILSGAKIKTIPTGLKFGTITATLNNEKFEITTLRKDIECNGRHAKVIFTNDFAEDAARRDFTINALSYCPFKNEIYDYFEGFKDLQQEKVVFIGEALDRIKEDYLRILRFFRFSSYYANQLDDGNFKACKALKDGLKTLSRERIKSEMDKIIVSKRAAQILKAMFEIGILELIFSIQNYEIKFFEQANDFKLELVTRYALLLYCQKDLNLKVFLDWKFSKHEAMQILSITNFLNDAKFNMKKIWFEKKNYKEYLLAARIIGKLNHSQVKEFILKYDALLRPKFQVNGNDLLNMNIEKKKIGAKLEYLKNFWIEQDFKPSKLELLAKL	soluble
SEDNQRSRFRKICVFCGSHSGHREVFSDAAIELGNELVKRKIDLVYGGGSVGLMGLISRRVYEGGLHVLGIIPKALMPIEISGETVGDVRVVADMHERKAAMAQEAEAFIALPGGYGTMEELLEMITWSQLGIHKKTVGLLNVDGYYNNLLALFDTGVEEGFIKPGARNIVVSAPTAKELMEKMEEYTPSHMHVASHESWKVEELGDYPGQENKPQ	soluble
MKPTDTSEKALEQLIVRHLAGISEHASVPPNAVQSPGAIYALGGYVLGRATDFNRDVALDTVQLLAFLQATQPDAVETLELAHEGIKRTQFLHRLQGEITKRGVVDVLRKGVSHGPVRVDLYRLLPTPGNTNAAEAFGRNIFSITRQVRYSHDSGNELDLVIFVNGLPVLTFELKNSLTKQTVADAIVQYQSTRSPQELLFQPGRCIAHFAVDDAEVYFCTELKGKASWFLPFNQGWNNGAGNPPNPNGLKTDYLWKQVLAKESLANIIESFAQVVEEQETDATTGRKKKKRKPVFPRFHQLRTVRALLRRTRSDGVGKRYLIQHSAGSGKSNTIAWLAHQLVELRSVADPLMPQFDSIIVITDRRALDTQIARTIKGYDHVASIFGHSDNAQELRDYLRRGRKIIVTTVQKFPFILEEIGDLSGRTFALLIDEAHSSQGGKTTARMHEALSGKTDEEAFEEDATQDAVNTEIEKRIQSRRMLSNASYFAFTATPKNRTLELFGEKTVVDDKVEFRSPEELTYTTKQAIQEGFILDVIAHYTTLDSFYQVAKTVENDPDFDKARALKKIRHYVESHDKAIRRKAEIMVDHFVAQVMGAKKIGGKARAMIVCNGIARAIDYWREVSDYLEQIKSPYKAIVAYSGEFEIGGEKKTEADLNDFPSKEIPDRLRQDPYRFLIVANKFVTGFDEPLLHTMYVDKKLAGVQAVQTLSRLNRAHPQKHDTFVLDFADNAEAVKKAFQDYYRATIQTGETDANKLHDLKADLDDKQIYSWPQVEDLVALYLSGADRDKLDPILDHCVEQYQANLDEDNQVEFKGKAKAFVRSYGFLAAILSYGHPAWEKLSIFLNFLIPKLPAPKEEDLSKGVLESIDIDSYRVEARAALKMAMDDTDATVEVAPVGGGGGKGEPDIDKLSNILKTFNDLFGNIDWKDADKIGKVIAEEIPVRVAQDKAYQNAQVNSDRQNAKLEHDKALNRVVLELLSDHTELFKQFSDNPNFKRWLTDMVFDVTYQQNPAHGVEDVRMRALDIVRDRFDAAVVWSQAVDMLLDRLAAGGRNSLGIADLALIEETSGLSVSHVLFPVLNLLSAHDVGILNREFVRVGSTDTPQTMSFDEVRLLAQKDPEGDDWAECLSIRWALQDAQR	not soluble
MNRIIDMRCRPPLPEFREYFDIPRITWHGARTGAKQVSRAFVEGSMDLFFEEMDQAGIEIAVVQGRNSPAVFMGKQFNAAFIPNERLAQIQDQYAGRFVCFAGIDVSNTAHNAVEETVRSIKSLGLKGIFIEPGRQIQSTPDDERIFPVYEKCIELDIPVNLMSGPYAGADIGVSDPLYVDRLCTRYPELKIILGHGGYPYVQQILGVAFKHTNLFVSPDMYVFAPGGQAYIDAANGALRDQMVYGSAYPLRPVTQTVSDTLGLGLSADSERAYLELNARKLLNIAAALEHHHHHH	not soluble
MTGVYADAVLVSVTVGDTVTLHTAGVKNLQPADVKWYFNDIRIAQLDGDLRFNCTDIQCNDRTEIFIDRLRLDRKTGALTIVNITNTHSGVYQLVVIGGGGTIFNVTVHDDPATHYNQVKKNQGESVTFNPGVRRDLIVVLKCLLNNTLIAEISVNQSQICADVQCKERFTDRLKLDNESASLTITNTNITDSGNYTSVILISSDRRFSITREKRFSLTVTSLSSSQPSGGAIAGIVVMLLLLL	not soluble
MPITIGRGFLKSEMFSQSAISQRSFFTLLWEKIKDFFCDTQRSTADQYIKELCDVASPPDAQRLFDLFCKLYELSSPSCRGNFHFQHYKDAECQYTNLCIKDGEDIPLCIMIRQDHYYYEIMNRTVLCVDTQSAHLKRYSDINIKASTYVCEPLCCLFPERLQLSLSGGITFSVDLKNIEETLIAMAEKGNLCDWKEQERKAAISSRINLGIAQAGVTAIDDAIKNKIAAKVIENTNLKNAAFEPNYAQSSVTQIVYSCLFKNEILMNMLEESSSHGLLCLNELTEYVALQVHNSLFSEDLSSLVETTKNEAHHQSLEHHHHHH	not soluble
MPYYVYLLACGKHGTLYLGVTNDLVRRVHEHRSKATPGFSEHYGVGRLVWFEIYHDAITAITREKQLKKWRRDWKVRLIENQNPDWVDLYPGICR	not soluble
MGSDKIHHHHHHMKIVKNFRDINTLIPGWGDKMSEVSIFDIWKGTKFGESVLMEFDSLSFSPLGVYSLAYWARMKGFKVSVVDVLDTLKIYLSYAKMIGLGTSIANDIEVIKLGGRIDSGNVSTRIPITEEKVMEKELMKLYPHEDNEKTIVIVLGIEKFLALWCKLLPDILSFLNFMLSFVGEEWMKSFYFINVDLMKDFSFPALSMLEELSTTVVEISKRGPVLHYIVRKALNPEIDSLEGEIHIKELISEIENPIES	not soluble
QDLTVKMTDLQTGKPVGTIELSQNKYGVGFIPELADLTPGMHGFHIHQNGSCASSEKDGKVVLGGAAGGHYDPEHTNKHGFPWTDDNHKGDLPALFVSANGLATNPVLAPRLTLKELKGHAIMIHAGGDNHSDMPKALGGGGARVACGVIQ	soluble
